According to US20080227954A1 (ZEALAND PHARMA A S, published 2008):
Where no end group is shown, it is not given here.

Key:
[1] = target: T1, µ opioid receptor (bovine caudate nucleus synaptic membrane fraction) (bovine, UniProt P79350 1-401); assay: displacement of 1 nM [3H]DAMGO, bovine caudate synaptic membranes; column Time 0 hours
T1 construct: whole, on cells; Native receptor in brain membranes, not on intact cells; The tissue may hold other opioid receptors; also called µ-receptor; µ opioid receptors
Protocol: (§1) Affinities for […] opioid receptor were determined using [³H](D-Ala²,N-Me-Phe⁴, Gly-ol⁵) Enkephalin (DAMGO) (1 nM) as described by Christensen, 1993, Pharmacol. Toxicol. 73:344-345. In short: Bovine brains were placed on ice within minutes after the slaughter. The caudate nuclei were dissected and homogenized in 20 vol. of 0.32 M sucrose. The homogenate was centrifuged at 2000 g for 10 min. The pellet was re-suspended in 10 vol. of 50 mM Tris-HCl buffer 7.4 and stored at −20° C. until use. The synaptic membrane fraction was incubated with 1 nM of [3H]DAMGO in the presence of various concentrations of test ligand. Non-specifically bound [3H]-DAMGO was established using 1 μM naloxone. Following 15 min. incubation at 36° C. samples were filtered through Whatman GF/C filters and washed with buffer. Radioactivity was determined using conventional techniques.

[2] = target: T1, µ opioid receptor (bovine caudate …); assay: displacement of 1 nM [3H]DAMGO, bovine caudate synaptic membranes; column Time 18 hours
[3] = target: PTH (1-34)-antibody of the enzyme immunoassay EIAS(h)-6101 (Peninsula Laboratories, Inc.); assay: competitive EIA against biotinylated peptide for the PTH(1-34) antibody
[4] = target: T1, µ opioid receptor (bovine caudate …); assay: displacement of 1 nM [3H]DAMGO, bovine caudate synaptic membranes; column Time 0 hours; mean ± SD
Protocol: as §1

T1 sequence (P79350 whole entry): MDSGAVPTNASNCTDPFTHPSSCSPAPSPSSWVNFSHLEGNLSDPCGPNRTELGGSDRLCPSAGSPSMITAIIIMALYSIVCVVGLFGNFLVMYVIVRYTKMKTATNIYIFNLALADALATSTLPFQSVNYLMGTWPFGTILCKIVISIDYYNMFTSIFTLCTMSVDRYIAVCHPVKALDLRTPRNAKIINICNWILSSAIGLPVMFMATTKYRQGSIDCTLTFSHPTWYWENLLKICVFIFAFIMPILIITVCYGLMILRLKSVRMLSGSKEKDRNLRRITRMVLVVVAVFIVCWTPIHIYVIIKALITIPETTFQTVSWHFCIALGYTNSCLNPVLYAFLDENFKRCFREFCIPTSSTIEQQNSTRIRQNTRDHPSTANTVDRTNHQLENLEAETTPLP

| Binder | IC50 [1] [µM] | IC50 [2] [nM] | Relative recovery % [3] [%] | IC50 [4] [nM] |
| --- | --- | --- | --- | --- |
| H-YGGFLEEEEEE-OH [Leu-Enkephalin-(Glu)6-OH (H-Tyr-Gly-Gly-Phe-Leu-Glu6-OH)] | 10 | 5000 |  |  |
| H-KKKKKKSVSEIQLMHNLGKHLNSMERVEWLRKKLQDVHNF-OH [H-K6-PTH(1-34)-OH (Lys6-PTH(1-34)(Human)-OH)] |  |  | 79.1 |  |
| H-YGGFLKKKKKK-OH (also called H-Leu-enkephalin-Lys6) [Leu-Enkephalin-(Lys)6-OH (H-Tyr-Gly-Gly-Phe-Leu-Lys6-OH)] |  | 32 |  | 17 |
| SVSEIQLMHNLGKHLNSMERVEWLRKKLQDVHNF-OH [hPTH (1-34) (PTH(1-34)(Human)-OH)] |  |  | 90.8 |  |
| YGGFLKEKEKE-OH [Leu-Enkephalin-(Lys-Glu)3-OH] |  | 900 |  | 450 |
| H-SVSEIQLMHNLGKHLNSMERVEWLRKKLQDVHNFKKKKKK-OH [H-hPTH(1-34)-K6-OH (PTH(1-34)(Human)-Lys6-OH)] |  |  | 61.8 |  |
